This series is described as follows: soluble on expression in E. coli; label from the status in PepcDB or PDB records.
As to “MGSDKIHHHHHHMKEYRIRPREANLSFLEDLDEEQRRAVVESEGRCIVIAGPGSGKTRVITYKIAYLLANGVDPSRILLVTFTRAAAREMVERAKAVTGRELSEMLAGTFHHVCNHFLRKYAPYVGLERNYSILDREDAESLMRHARSKYLERKSKEERKNFPQPSVLMAIYSYMKNTLKSLRESIVVKNPKFLDLKEEISEIFDLYEQEKRSQNVVDYEDLLFYAYRLFEENKEIRDREAERFLWILVDEFQDTNYVQYKIVEHLSSKHGNILAVGDDAQSIYSFRGARYENVEDFIRVPGTKIFKIQTNYRSTESIVKFINAMLPRKSVPKELKPVKKDGMKPVVVKTWDRYEEARFVSQRILELIEEGFKPEEIAVLYRSHSHSLELQMELVRSRIDFRVLSGPRFTESAHVKDVLSFLRIVQNPRDKSAWLRAAKLFYGIGDRTASKIADLASAYVEEGLDPFQELKKVSFSGEYSRFIDILDQIRKLDSPGEMIERVLSSFYSEYLEARYPDFREREMDLERLVEIASRYTSLESFLTDLAVTENVEIEREISQKEGKVTLTTVHQAKGLEWRVVFVISVNPGDFPNYFAISEGNLDEEERIFYVAITRAKEQLYISYQVTGTSYPYRGNRFIMRSGENFIDRIPLELVEFWEVK”, the “soluble on expression in E. coli” value is “not soluble”.
Regarding “MGSDKIHHHHHHMFDRYEAGETAVLVHIDFSDEERREDLVELQLLVESAGARSVGVITGSRRSPDRKFFIGSGKAEELAALVAATEANVVIFNHALSPAQERNLEQVCQCRVLDRTSLILDIFAQRARTHEGKLQVELAQLRHMSTRLVRGWTHLERQKGGIGLRGPGETQLETDRRLLRGRIKNINKRLERVDKQREQSRRARKRSDMPTVSLVGYTNAGKSTLFNALTSSDVYAADQLFATLDPTLRKLDLPDGAVILADTVGFIRHLPHDLVAAFKATLQETRQAELLLHIVDCADENMADNFEQVQSVLKEIDADEVMQLIVCNKIDLLEDVTPRIEYDDRGKPVRVWVSAHKRLGFDLLLKAITELIGEVIHEFTLRIPATAGHYLGQFYRLDAIQQKEYDDLGNCILSVRLSDADWRRLAKQSQGELETFIFDPSIEKAVC”, the “soluble on expression in E. coli” value was “not soluble”.
Under “MGSDKIHHHHHHMNLWDKKAKTYARYQNTLNTIQKQTFEYLQNLKISFQDKSIIDIGCGTGVWTLHLAKEAKEILALDSANAMLEILQEDAKKLNLNNIKCKNLSFETWMQNNPNVKFDLAFLSMSPALQNEKDYTNFLNLAKIKIYLGWADYRKSDFLDPIFKYFNTEFKGFYKKDLENYLLEKNIFFHKIVFDETRKVQRTKEEAIENALWHLSMNKITASKETVSSFVENNITETIESKIKLLIINNL” stands “not soluble”; under “MIRFEQVSKAYLGGRQALQGVDFHLRPAEMAFLTGHSGAGKSTLLKLICGIERPSAGHIWFGGHDISRLKNREVPFLRRQIGMIFQDHHLLLDRTVYDNVAMPLIIAGASSEDIRRRVSAALDKVGLLDKAKNFPIQLSGGEQQRVGIARAVVNKPAVLLADEPTGNLDDALSEGILRLFEEFNRVGVTVLMATHDTSLIARRRYPILTLSQGRMSGAHHGE”, “not soluble”; under “MGSGESTTRRVSFGLDEDDRVRILRGVKLSEDVLQRMRNTNADPRPPANNKENQGHQTRTPSTSDAQAPKTQAKTTFPDSKEELKKRYEQQQAIIQEELARIARKEREAARQDISRAVQRERAQTRQESERAKQLGKQLDKKEAELKALEAFYQEQITQLEKKNEERFRMSAEQFHAAATRSEANIKARNVEPVCLNLQAQILNCYRENREQTLQCSDLAKEYMQCINAAKKNLLVNHG”, “not soluble”.
In the case of “MGSDKIHHHHHHMSNRIKNIHYGTQRQQLKNLTKKEYQALREMCFLAKNLYNVGTYNVRQHYFNQGEHLNYEANYHVCKENENYKLLNSNIAQQILKEVDSSFRSFFGLIKLAKEGKYDFRGIKSPKYLDKEGFFSIIIGQIRIKEDGILNVPMSPAFKKLYGKVSIKVPQNILEKKIKEIRIIPKHKARFFEIQYCYEIPKSEEVSNQKNALAIDLGLENLCTCVTNLGDSFIIDGKRLKSVNQWANKQNDKIEALKLKKNITAITRKQFKVWNKRNNQVKDYVNKTCFYIIDYCVKNNIGNLIVGYNAKLEKSDNMERKIYRNFIRIPFGEIKGKLEYLCKIKNINFIRQEESYTSKSDFFADDFLPDINVDNVKKYDFKGERITRGQYKSSVGIIINADVNASLNILKKSQVVNLSNLQNNPQILKQPQRVRIS”, the “soluble on expression in E. coli” value was “not soluble”.
Under “MGKVTIIAGGIKTESRLTGLTQLAANELVTNGLEVNIIEVHKINAEALVTADFAHSDIQLANSEIESSSGVIIATPIFKAAYSGVLKAYLDLLPLKALKGKVVLPLGLGGSNGHLLALQYALDPVLKELGAETILKGQFTVDKQIERLGDGLYEIESSAKERLDIALGQFISLLNQQSVEVLEHHHHHH” stands “soluble”; under “MTEVVLHIYDVTNSGSEKTNNTIVQINRFFKDGIGLGGIFHSAIQVYGNDEWSYGYCELGTGVFSCPSGKNPMYTYREKIVLGKTDCTIFMVNQMLRELSREWPGHTYDLLSKNCNHFCDVLCDRLGVPKIPGWVNRFANAGDTALEVAGNTAMRMKQAKTELVSASKVAYRFLSNVTSNVTNGSNGSPQRPGTLNNSDSGNLRLQGSWLKGLLNTAKPSTSTEIGNKDEDANHAVTNQKKQSRDSDVLLFQ”, “not soluble”.
“MAEFRIAQDVVARENDRRASALKEDYEALGANLARRGVDIEAVTAKVEKFFVAVPSWGVGTGGTRFARFPGTGEPRGIFDKLDDCAVIQQLTRATPNVSLHIPWDKADPKELKARGDALGLGFDAMNSNTFSDAPGQAHSYKYGSLSHTNAATRAQAVEHNLECIEIGKAIGSKALTVWIGDGSNFPGQSNFTRAFERYLSAMAEIYKGLPDDWKLFSEHKMYEPAFYSTVVQDWGTNYLIAQTLGPKAQCLVDLGHHAPNTNIEMIVARLIQFGKLGGFHFNDSKYGDDDLDAGAIEPYRLFLVFNELVDAEARGVKGFHPAHMIDQKHNVTDPIESLINSANEIRRAYAQALLVDRAALSGYQEDNDALMATETLKRAYRTDVEPILAEARRRTGGAVDPVATYRASGYRARVAAERPASVAGGGGIIGSHHHHHH”: the “soluble on expression in E. coli” value is recorded as “soluble”.
Regarding “MAGDPMKVFVVNLDKDKDKKEKIKNECRNAELDYEIISAVDGRELSYNELKSKVHPVSLNYLSKGEIGCVLSHQRIYKRILDDDIDYALILEDDVELSQDIKVFLKEFLSVKDKNKGDVFLLYPSGLRFLNRRINVSHDYFFYEAYNSSCAHGYIISNKAAKKLIRINTPIILVADAWLWFYQISLLKVYVLNKELVRAYDVDKSLSTIETERSLLLDEKEKHQMQIIKKQPLYYLIKYYHKYIRRLFINKDKLEHHHHHH”, the “soluble on expression in E. coli” value is listed as “soluble”.
“GAMGSSRKSKAELQSEERKRIDELIESGKEEGMKIDLIDGKGRGVIATKQFSRGDFVVEYHGDLIEITDAKKREALYAQDPSTGCYMYYFQYLSKTYCVDATRETNRLGRLINHSKCGNCQTKLHDIDGVPHLILIASRDIAAGEELLYDYGDRSKASIEAHPWLKH”: the “soluble on expression in E. coli” value is “soluble”.
In the case of “MAMQIKGVIFDFDGTLLDSVELRITAWKKAFQNFGVNVPEDLIRPMIGYPGIDLAKKFVKNPLDVEMLQEDYFLKNIESAKFFQDVIPTLAELRKRGIKTAVVTSTRRIVMQKFSLQVDHVVTIDDVSKGKPDPEPYLKALKMMGIPAEECIVVGDIENDLIPAKKLRCISVLVKHGRDISSNYADYEIENIADILNVIDHLAEKNNR”, the “soluble on expression in E. coli” value was “not soluble”.
Consider “AALPDSVDWREKGCVTEVKYQGSCGASWAFSAVGALEAQLKLKTGKLVSLSAQNLVDCSTEKYGNKGCNGGFMTTAFQYIIDNKGIDSDASYPYKAMDQKCQYDSKYRAATCSKYTELPYGREDVLKEAVANKGPVSVGVDARHPSFFLYRSGVYYEPSCTQNVNHGVLVVGYGDLNGKEYWLVKNSWGHNFGEEGYIRMARNKGNHCGIASFPSYPEILQG”, for which the “soluble on expression in E. coli” value is reported as “soluble”.
In the case of “SLMLHAQHMPGQPGTPSLVFLHGFSGDCHEWQPVGEQFHGCSRLYIDLPGHGGSAAIPVDGFADVIRLLRATLISYNILKFWLVGYSLGGRVAMMAACQGIPGLCGLVVEGGHPGLQNEQARAERRLSDGRWAERFRHEPLTEVFHDWYQQPVFASLTAQQRQALTALRSQNNGETLAAMLEATSLAVQPDLREALNALAFPFYYLCGERDSKFRALAQEVAATCHVIRNAGHNAHRENPAGVVDSLAQILRL”, the “soluble on expression in E. coli” value was “soluble”.

Source of the values: the DeepSol protein solubility set.
